# Tested on: K4 kissing-loop RNA reporter
# Experiment: apparent KD of K4 kissing-loop reporter; higher = weaker reporter binding
# Conditions: Eterna round: R107
# Protocol: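 RNA-MaP round R107: designed RNA switches with theophylline, tryptophan, arginine or FMN aptamers are transcribed on-chip within common flanks. They are titrated with a labelled K4 kissing-loop RNA reporter in RNA-MaP buffer (100 mM Tris pH 7.5, 80 mM KCl, 4 mM MgCl2), without ligand or with the indicated ligand. Median apparent KD per design.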
# [1] = input ligand: theophylline 20 uM
# [2] = input ligand: tryptophan 2.4 mM
# 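Also: bound reporter read as fluorescence of individual clusters on recovered sequencing chips by microscopy, with normalized cluster intensities fitted with a binding model.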
Sequence,apparent KD of K4 kissing-loop reporter (input ligand: FMN 200 uM),apparent KD of K4 kissing-loop reporter (input ligand: arginine 13.2 mM),apparent KD of K4 kissing-loop reporter (input ligand: none),apparent KD of K4 kissing-loop reporter [1],apparent KD of K4 kissing-loop reporter [2]
AUUCUGUUUUUAAUGUUUAUUGUAUAAUGGCAGGAUAUCGUAGAAGCGAGAAGGGCUUUUAUGCGUUAUGAGUGAUGUUUGUAGG [dhhyfvmullin],364 nM,247 nM,267 nM,410 nM,270 nM
GCGGCGGGCCAAGGAUAUAUAUUGGAGUGAUGUUGUUCAUUUAUUUGAGCUAGUGAUGUUGGUCAAAUAGAAGGUGGCCCGCCGC [whbob_Ex_FMNB__2th217],56.5 nM,34.6 nM,59.3 nM,44.8 nM,62 nM
GCCUGUGCACGAAGGAGCGCCGUGACAGGUUACUGCCUUGGGCAGUGAUGUUGCUCAAUCUGGCAGGUAGGUCGCGUGCACAGGC,132 nM,145 nM,166 nM,138 nM,102 nM
CUUAGGAGUGGUGUUGAUUAGGGAGCGGAAGGAGCGCCAAUGAUGGCAGGUAGGUCGCCGGAAUGUAGUGAUGUUGCAUAGAGGG [ExArgA.S],476 nM,225 nM,415 nM,236 nM,267 nM
AAACAUCACUGGGAGUGAUGUUCUCAGUGACGAGGACCGGUACGGCCGCCACUCGCGAGAGAUAUAAUUAAGUAAUGACAUCAUU [Excl Tryptophan A V6],260 nM,267 nM,274 nM,341 nM,327 nM
CGCCGUAAGGCGGUCGCUCCCACUCCGGAAGGAGCGCCCGCAAGGGCAGGUAGGUCGCCGGAGUGAUGUUCCGGUGGAGGGACCG [#2 Exclusion - Arginine A Attempt #7 (Inspired by Omei)],207 nM,161 nM,260 nM,216 nM,186 nM
AUUAUAAAGUCGGCCGCCACUGAGAGUAGUGAUGUUACUCUAUUCCUUUACAUAUUAUAGUUUAUCAGGACCGGGACAUCAGAUU [JR_ExcTryptoB_Sub018],268 nM,214 nM,279 nM,246 nM,199 nM
CUCACAGUGAUGUUGUGGGCCGAGAGUGAUACCAGCCGUAUUUGUGGCCCUUGGCAGCGCAGAACCAGUGAUGUUGGUUACUUGG [Same State Theophylline A GF 23],229 nM,286 nM,271 nM,277 nM,238 nM
GACGGGCAGUGAUGUUGCCGGUCUCUUGGACGAGGACCGGUACGGCCGCCACUCGAUCUGAUGCAAGAAUCGCAUCUUUUAAUAA [Biququan],151 nM,103 nM,166 nM,312 nM,273 nM
GCGGUGUUAUGCCCGAGGGUAUAGUUGCCAAAGGAUAUGAUUGUUGUCAGAAGGUUGCGCUUGAUCAGUGAUGUUGGUCUCCAAC [theeternabot_sameState_KL_FMN_A_12],398 nM,275 nM,373 nM,342 nM,337 nM
AGACUUCACCGAAGGAGCGACGUAGCCUAGUGAUGUUAGGCGCGAGAGAAAUCUCGUAUACGUCAGGUAGGUCGCGGUGAAGUCA [Omei KL Arginine B SS C v4],163 nM,129 nM,152 nM,126 nM,146 nM
CGUUUAUUGCAGGAUACCAGUACCCAUUAUGUACGUUUAUAGUAGAGUGAUGUUCUAAAGUACCCUUGGCAGCUUCCCGUGACCC [#22 K4 Theophylline B Exclusion],119 nM,193 nM,142 nM,188 nM,90.3 nM
AGUGAUGUUUUUUUUAAGAGUGAUGUUUUUCGAGGACCGGUACGGCCGCCACUCGAGUGAUGAGUGCGUUGUUGUGAUGUUUAGU [#11 K4 Tryptophan A Exclusion],438 nM,362 nM,473 nM,413 nM,246 nM
CCCUCACGAGUGAUGUUCGUAGGGUACAGUCAGGAUAUCAUGCGGUUGAGAAGGGACAGAGAGGGCGGCGGCGGGUUGCUCCUCU [Beeded],290 nM,240 nM,281 nM,711 nM,495 nM
GUAUCGCUAGGAGGAUAUUUCAAAUAAUAAAUAAAUGGAUAUACGGAGUGAUGUUCCGAUUUACGGAAAGAAGGCCUAGUGAUAC [FMN B 1],136 nM,179 nM,194 nM,190 nM,171 nM
GCUAGGCAUGCAGGAUAUCGUGGAGUGAUGUUCCGUUGGCUGCUAGCGGAAAACGCUAGCAGCCUACGAGAAGGGCAUGCCUAGC,192 nM,356 nM,425 nM,410 nM,368 nM
UAGUCAUACAGAGGAUAUCGUAUGAGUGAUGUUCAUAUGCGUACAUCAACUUGAUGUACACCUAGACGAGAAGGCUGUAUGACUA [FMB B SS t6a],172 nM,199 nM,252 nM,212 nM,227 nM
UGUGUUGUGUAGUGUUAUGUUUUGAGGGAUACCAGAGUGUUUUUAUUCCCUUGGCAGCUUGAGUGAUGUUUGAUGUUGUUGUUGU [jlljmullin],297 nM,178 nM,218 nM,219 nM,184 nM
UCGAACGAUGGAAGGAGCGCUCGUCAGUCCUGCGAGUGAUGUUCGUGGGUAAAUAGUCGCGAGCAGGUAGGUCGCCAUCUUGAGC [Indiermaar],130 nM,120 nM,131 nM,128 nM,125 nM
GAUCCAUGACAAGGAUAUUCGCCAACGGUGCCGGAGUGAUGUUCUGCACAACAGACUACAAGUAAGGAAGAAGGUGUCAGUUACC [theeternabot_sameState_KL_FMN_B_29],595 nM,843 nM,946 nM,609 nM,561 nM
GGAUAGGACAGAGGAUAUGGUAGUGAUGUUACCAACAGCCUACUGUCAAUAAAGACGGUUGGCUGACCAGAAGGCUGUCCUAUCG [Mod of Eli's FmnBX 26 v1],564 nM,132 nM,145 nM,148 nM,142 nM

Sequence,apparent KD of K4 kissing-loop reporter (input ligand: FMN 200 uM),apparent KD of K4 kissing-loop reporter (input ligand: arginine 13.2 mM),apparent KD of K4 kissing-loop reporter (input ligand: none),apparent KD of K4 kissing-loop reporter [1],apparent KD of K4 kissing-loop reporter [2]
GGAUGGUAGGCGGCCGCCACUAAAAGUGAACACAUACAAGCCAGUGAUGUUGGUAUGAUGGACUAUAGGACCGGGCCUAGAUAGA [Exclusion - Tryptophan B (Freestyle 6)],468 nM,410 nM,522 nM,454 nM,466 nM
CGCCACGACUGAAGGAGCGCGCCAGUGAUGUUGGACGGCUUUGUCAAGGAAACUGCACCGGUGCAGGUAGGUCGCAGUUCGUGGU [Quisbiri],398 nM,421 nM,537 nM,588 nM,362 nM
UUCAGGUGUUCGGCCGCCACUCCAGUGAUGUUGGAGUGGCUUCACAAGGGCCAGGACAAUGUAAGGAGGACCGGGAAUAUCGCAG [Quonerar],127 nM,116 nM,123 nM,89.2 nM,134 nM
AGUUCUUGCCGAAGGAGCGAGGCAGAGUGAUGUUCUGCACGAGGUCGAAAGACCUCGCUGCCUCAGGUAGGUCGCGGCAUGAACA [Omei KL Arginine B Exc A v2],897 nM,504 nM,1130 nM,614 nM,1300 nM
UGCAUCAGUGCCUUUGAUCUAUUCCUGGAUACCAGAUCCUACUUGAUCCCUUGGCAGCCAUACGGGAGUGAUGUUCCAUGUAUCC [theeternabot_exclusion_KL_Theo_A_43],210 nM,199 nM,209 nM,285 nM,167 nM
AUUUAGACGAGUGAUGUUCGUGUUAUUACAGAGGAUAUGCGUAAUUGCAGAAGGCUGUAUUUAUAUAUGUUAUGUAAUUUUAAAA [JR_ExcFMNA_Sub007],89.5 nM,108 nM,88 nM,99.4 nM,73.2 nM
UGGAGUUGACGAAAAGUCAACUCCUGAGAAGGAGCGGACGAAAGUCCAGGUAGGUCGCUCACUACCAGUGAUGUUGGUACUGAAA,187 nM,228 nM,203 nM,229 nM,164 nM
UGACUUGCCUGAGGAUAUCUAGGAUAUCCAUAAAAGGAAAUAAUAGUUCAGUGAUGUUGGAGAAGGAGAGAAGGCAGGUAAGUCU [KL-XFMN-B18 #DoubleAptamer #SwitchBubble],671 nM,514 nM,493 nM,737 nM,448 nM
AAGCCGGUUGCGGCCGCCACUUUUGCGGACCCGGUGCAGUGAUGUUGCGCAUCGCGGGUUGCUUAAAGGACCGGGCACCUCUAAC [theeternabot_sameState_KL_Trp_B_7],418 nM,359 nM,401 nM,363 nM,327 nM
UUUUAUAACCGAAGGAGCGCGUGGGCGCAGUGAUGUUGCGCCCGACAUCACUUCAACUUAACGCAGGUAGGUCGCGGUUUUAAUA [Arginine B (Excl) V2],157 nM,132 nM,159 nM,158 nM,153 nM
GAUGAUCGCGCGGCCGCCACUGGUCAGUGAUGUUGACAUUAAUGCGCCGAGUAGUAACGGCGCAGCAGGACCGGGCGCGAUGUAG [#12 K4 Tryptophan B Same State],144 nM,141 nM,145 nM,121 nM,163 nM
UGUCAUUGGUCUGAUACCAGAAGAAAUCUGGAGUGAUGUUCCAAGUACGACAAAAGUCGCUUCCCUUGGCAGCAGACCGAUGACU [TheoBS 21 #SwitchBubble 13 #StaticStem],705 nM,510 nM,638 nM,406 nM,683 nM
AAAAGAAGAAGUGAUACCAGACAAGCAGUGAUGUUGCGCCAAAGUGAGUGAUGUUCACCAGUCCCUUGGCAGCACAUGCCAAAAG [Same State Theophylline B GF 5],520 nM,927 nM,668 nM,839 nM,933 nM
UUAGCCUAGCCAUAGUGAUGUUGUGGAAUACGAGGACCGGUACGGCCGCCACUCGCUCGACGGUGAUGACAUCAACGACCUUUAU [theeternabot_sameState_KL_Trp_A_38],312 nM,304 nM,311 nM,314 nM,285 nM
UGCGCUGUGUACUGAAAUGUCCUGCGGGAUACCAGAGUCUUUUUAUUCCCUUGGCAGCUUGAGUGAUGUUUGAUGCCGUUCUUGU [frrgmullin],786 nM,423 nM,710 nM,738 nM,470 nM
AUAUCUAGAGUGAUGUUCUAGUAAGCUGAAGGAGCGGACGAAAGUCCAGGUAGGUCGCAGUGUUUUUACACCUCAUGUGUAGGAG [KL-SSArg-A7 #analogue],118 nM,128 nM,107 nM,163 nM,130 nM
AUGCAUCAGACUUGAUACGGUGAAAUAGCCCGAGGACCGGUACGGCCGCCACUCGGUCCAGUGAUGUUGGAUAAUUAAUCUAGGU [theeternabot_sameState_KL_Trp_A_34],197 nM,256 nM,297 nM,294 nM,82.4 nM
UGUCAUUGGUCGGCCGCCACUUCAUAAAGAGUGAUGUUCUAAAAGACGGAUCGAAAGAUCUGUCGAAGGACCGGGAUCGAUGACU [FiskerMod 11 - Jieux - Same State - Tryptophan B],1200 nM,559 nM,998 nM,569 nM,275 nM
AGCAGUCACUCGAAAAACCAUCGAAGAUGGCGAGGACCGGUACGGCCGCCACUCGGAGUGAUGUUCCGAAGACUGCAAAAUAAAA [#SwitchBubble 15],350 nM,438 nM,368 nM,313 nM,435 nM
AGGUACAAAAGUACCGCUAGAUCCACGGAAGGAGCGCCGGAAACGGCAGGUAGGUCGCCGGGCAGUGAUGUUGCCGGAUCUAGCA [Omei KL Arginine A SS A v4],161 nM,155 nM,231 nM,240 nM,198 nM
UUAGGAGUGGGAGGAUAUCCUAAUGUGGGUGAUGUUAGCGAUGUUGAAAGUGUAGUGAUGUUGUGCGGAGAAGGUCCAGUGUUGA [BDazzled - #12 - Exc. FMN B],197 nM,141 nM,175 nM,269 nM,168 nM
